Results on one molecule are retold here after US20240150495A1 (F STAR BIOTECHNOLOGISCHE FORSCHUNGS UND ENTWICKLUNGSGES M B …, published 2024).

This assay addresses T1, Fcab-wt (human, UniProt P01857-1 99-330 = IgG part).
T1 construct: Negative control
Nature of the assay: ELISA on coated human ανβ3 integrin, HRP labelled protein A. On the technique in general: In an ELISA, binding on a coated surface is turned into a signal by an enzyme label.

Description: For the integrin ELISA, 1 ug/ml human ανβ3 integrin in PBS was coated over night on Maxisorp plates and blocked for 1 h with BSA in PBS containing 1 mM Ca2+. […] Bound Fcabs were detected by HRP labelled protein A and TMB as a substrate.

B1: human ανβ3 integrin (Chemicon) (receptor)
chain 1: FNLDVDSPAEYSGPEGSYFGFAVDFFVPSASSRMFLLVGAPKANTTQPGIVEGGQVLKCDWSSTRRCQPIEFDATGNRDYAKDDPLEFKSHQWFGASVRSKQDKILACAPLYHWRTEMKQEREPVGTCFLQDGTKTVEYAPCRSQDIDADGQGFCQGGFSIDFTKADRVLLGGPGSFYWQGQLISDQVAEIVSKYDPNVYSIKYNNQLATRTAQAIFDDSYLGYSVAVGDFNGDGIDDFVSGVPRAARTLGMVYIYDGKNMSSLYNFTGEQMAAYFGFSVAATDINGDDYADVFIGAPLFMDRGSDGKLQEVGQVSVSLQRASGDFQTTKLNGFEVFARFGSAIAPLGDLDQDGFNDIAIAAPYGGEDKKGIVYIFNGRSTGLNAVPSQILEGQWAARSMPPSFGYSMKGATDIDKNGYPDLIVGAFGVDRAILYRARPVITVNAGLEVYPSILNQDNKTCSLPGTALKVSCFNVRFCLKADGKGVLPRKLNFQVELLLDKLKQKGAIRRALFLYSRSPSHSKNMTISRGGLMQCEELIAYLRDESEFRDKLTPITIFMEYRLDYRTAADTTGLQPILNQFTPANISRQAHILLDCGEDNVCKPKLEVSVDSDQKKIYIGDDNPLTLIVKAQNQGEGAYEAELIVSIPLQADFIGVVRNNEALARLSCAFKTENQTRQVVCDLGNPMKAGTQLLAGLRFSVHQQSEMDTSVKFDLQIQSSNLFDKVSPVVSHKVDLAVLAAVEIRGVSSPDHVFLPIPNWEHKENPETEEDVGPVVQHIYELRNNGPSSFSKAMLHLQWPYKYNNNTLLYILHYDIDGPMNCTSDMEINPLRIKISSLQTTEKNDTVAGQGERDHLITKRDLALSEGDIHTLGCGVAQCLKIVCQVGRLDRGKSAILYVKSLLWTETFMNKENQNHSYSLKSSASFNVIEFPYKNLPIEDITNSTLVTTNVTWGIQPAPMPVPVWVIILAVLAGLLLLAVLVFVMYRMGFFKRVRPPQEEQEREQLQPHENGEGNSET
chain 2: GPNICTTRGVSSCQQCLAVSPMCAWCSDEALPLGSPRCDLKENLLKDNCAPESIEFPVSEARVLEDRPLSDKGSGDSSQVTQVSPQRIALRLRPDDSKNFSIQVRQVEDYPVDIYYLMDLSYSMKDDLWSIQNLGTKLATQMRKLTSNLRIGFGAFVDKPVSPYMYISPPEALENPCYDMKTTCLPMFGYKHVLTLTDQVTRFNEEVKKQSVSRNRDAPEGGFDAIMQATVCDEKIGWRNDASHLLVFTTDAKTHIALDGRLAGIVQPNDGQCHVGSDNHYSASTTMDYPSLGLMTEKLSQKNINLIFAVTENVVNLYQNYSELIPGTTVGVLSMDSSNVLQLIVDAYGKIRSKVELEVRDLPEELSLSFNATCLNNEVIPGLKSCMGLKIGDTVSFSIEAKVRGCPQEKEKSFTIKPVGFKDSLIVQVTFDCDCACQAQAEPNSHRCNNGNGTFECGVCRCGPGWLGSQCECSEEDYRPSQQDECSPREGQPVCSQRGECLCGQCVCHSSDFGKITGKYCECDDFSCVRYKGEMCSGHGQCSCGDCLCDSDWTGYYCNCTTRTDTCMSSNGLLCSGRGKCECGSCVCIQPGSYGDTCEKCPTCPDACTFKKECVECKKFDRGALHDENTCNRYCRDEIESVKELKDTGKDAVNCTYKNEDDCVVRFQYYEDSSGKSILYVVEEPECPKGPDILVVLLSVMGAILLIGLAALLIWKLLITIHDRKEFAKFEEERARAKWDTANNPLYKEATSTFTNITYRGT
notes: Bought from Chemicon; coated at 1 ug/ml on Maxisorp plates; also called alpha-v beta-3 integrin
As to B1, the binding result was “no binding (tested: 10 ug/ml)”.
